Data as given in the supplement of paper PMC10724198.
± gives the standard deviation of the averaged measurements.

System: Saccharomyces cerevisiae
Test: protein stability index of tFT-peptide fusion (C-terminal peptide) (PSI (0-1 scale)); higher = more stable (slower turnover)
Settings: genetic background: cdc34-1; temperature: 37 C
Description: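 MPS profiling in S. cerevisiae of the tFT-X12 degron library: putative degron peptides plus stable controls, 12 aa, fused to the C-terminus of a sfGFP-mCherry timer. Cells are FACS-sorted into 8 mCherry/sfGFP bins and deep-sequenced. PSI runs from 0 (unstable) to 1 (stable). Backgrounds are wild type, das1Δ and doa10Δ at 30 °C, and wild type, das1Δ, cdc34-1 and cdc53-1 at 37 °C; 2-3 technical replicates each.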
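Further: PSI is a weighted mean of sequencing reads over stability bins, variants kept only with over 10 reads, mCherry proximal and sfGFP distal, peptide attached via GGGS linker.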

Sequence | protein stability index
FPWGRIFLRLRT | 0.34 ± 0.083
FQFTLWRTLLCS | 0.1843 ± 0.00066
FQLGLVFCVCSG | 0.432 ± 0.0073
FQWILYIAKRVV | 0.556 ± 0.095
FRCPHAVKLVLV | 0.384 ± 0.021
FRFSSLLYILLS | 0.223 ± 0.067
FRTTGQAPPSKP | 0.674 ± 0.064
FSLRLFLVLALS | 0.3032 ± 0.0029
FSVTTLTILCLR | 0.305 ± 0.017
FSYLSFLPSLAA | 0.545 ± 0.049
FTFPLPPSLLLV | 0.378 ± 0.023
FTGLCQGLWLGW | 0.691 ± 0.019
FVCLCGFLQVLS | 0.517 ± 0.018
FVLWWGWSWLVV | 0.213 ± 0.01
FVRVFLRLGVVS | 0.14 ± 0.024
FVSVWVFLVSSF | 0.258 ± 0.025
FVVQSLNQMRLN | 0.693 ± 0.025
FVYFLLVVCFAF | 0.1671 ± 0.0012
FWESHVLPYRLL | 0.654 ± 0.036
FWFLWAKMLLSC | 0.253 ± 0.015
FWWVGCGWCRWG | 0.619 ± 0.019
FYPFHVFCLLIF | 0.18 ± 0.028
GAICCFCCYLVF | 0.554 ± 0.0089
GALWPGALRFLN | 0.587 ± 0.045
GCLGYTLSCFTY | 0.563 ± 0.014
GCVVLNTVAFIC | 0.492 ± 0.0084

Sequence | protein stability index
GELDVRKLLKYF | 0.688 ± 0.02
GFAFFIGLSFAF | 0.559 ± 0.015
GFFCVWSLLFFN | 0.328 ± 0.045
GFFLCTCIRFWV | 0.452 ± 0.018
GFLRTVHFLLLG | 0.634 ± 0.1
GFNIFFFFFFFV | 0.21 ± 0.051
GFPFLCSFLLAS | 0.384 ± 0.0044
GFPFLFILYFLC | 0.161 ± 0.03
GGGAGVVWVRLG | 0.5376 ± 0.0049
GGGVGGAVVLFW | 0.651 ± 0.023
GGGWCVWMVWFG | 0.482 ± 0.036
GGIRLRVRFFVI | 0.584 ± 0.061
GGSGGVSWRRVV | 0.68 ± 0.034
GGSIKRFVILVL | 0.416 ± 0.027
GGSKIGFTVGGG | 0.686 ± 0.024
GGTGGAGSRGQI | 0.641 ± 0.069
GGWFFWVGAWVV | 0.173 ± 0.005
GGWRVLHAWVAV | 0.651 ± 0.045
GGYIINRWRTKN | 0.566 ± 0.035
GILPIYNIISRL | 0.9679 ± 0.0088
GITSFFSWSFLS | 0.6014 ± 0.0038
GKWFSWNAIWIR | 0.0949 ± 0.11
GLCGVCLVRCVG | 0.3008 ± 0.00051
GLGMVIIGLLIG | 0.176 ± 0.011
GLLGRCPVVVFG | 0.385 ± 0.041
GLRFFVSSLLCR | 0.502 ± 0.039

Sequence | protein stability index
GLVCPWLIVRFV | 0.303 ± 0.051
GLVWSKCFFIVG | 0.637 ± 0.041
GLWLRVCIVAWV | 0.0407 ± 0.01
GLYLVFMGFVPC | 0.471 ± 0.019
GNIHHTRFLALL | 0.838 ± 0.04
GNSAGSVGGGRF | 0.695 ± 0.022
GPILVWVMADWG | 0.43 ± 0.036
GPVRTEFWLYVW | 0.651 ± 0.014
GQRIKWGPIYLT | 0.352 ± 0.079
GREGETGSKAGR | 0.675 ± 0.008
GRGGLRVVVWLV | 0.518 ± 0.069
GRGLGHWWTVRT | 0.672 ± 0.03
GRVAIFTLLWRI | 0.199 ± 0.066
GSLHWVMVFAVP | 0.604 ± 0.037
GSVCVVCWELVV | 0.4883 ± 0.0024
GSVGFICCVVVV | 0.29 ± 0.022
GTETWVFVLLKF | 0.102 ± 0.021
GVFFHFFFLFCF | 0.332 ± 0.025
GVSRRWFSLRCI | 0.627 ± 0.039
GVVCCVVVGRMG | 0.619 ± 0.024
GVVRKLCHWVVA | 0.476 ± 0.0049
GWVQFVKAAVLF | 0.655 ± 0.063
GYACSIFYLRCV | 0.535 ± 0.037
GYRFSILSILRV | 0.581 ± 0.031
HANPGTFGPCTR | 0.654 ± 0.019
HGVYSVLRFFFC | 0.664 ± 0.038

Same assay, conditions: genetic background: cdc53-1; temperature: 37 C

Sequence | protein stability index
FPWGRIFLRLRT | 0.347 ± 0.025
FQFTLWRTLLCS | 0.248 ± 0.03
FQLGLVFCVCSG | 0.438 ± 0.022
FQWILYIAKRVV | 0.671 ± 0.04
FRCPHAVKLVLV | 0.404 ± 0.016
FRFSSLLYILLS | 0.274 ± 0.018
FRTTGQAPPSKP | 0.743 ± 0.013
FSLRLFLVLALS | 0.377 ± 0.01
FSVTTLTILCLR | 0.329 ± 0.011
FSYLSFLPSLAA | 0.562 ± 0.034
FTFPLPPSLLLV | 0.389 ± 0.0036
FTGLCQGLWLGW | 0.743 ± 0.014
FVCLCGFLQVLS | 0.564 ± 0.038
FVLWWGWSWLVV | 0.30626 ± 6.5e-05
FVRVFLRLGVVS | 0.17 ± 0.039
FVSVWVFLVSSF | 0.381 ± 0.019
FVVQSLNQMRLN | 0.727 ± 0.02
FVYFLLVVCFAF | 0.242 ± 0.014
FWESHVLPYRLL | 0.78233 ± 0.00013
FWFLWAKMLLSC | 0.212 ± 0.064
FWWVGCGWCRWG | 0.73 ± 0.023
FYPFHVFCLLIF | 0.177 ± 0.037
GAICCFCCYLVF | 0.625 ± 0.026
GALWPGALRFLN | 0.747 ± 0.05
GCLGYTLSCFTY | 0.64 ± 0.038
GCVVLNTVAFIC | 0.583 ± 0.017

Sequence | protein stability index
GELDVRKLLKYF | 0.718 ± 0.043
GFAFFIGLSFAF | 0.588 ± 0.012
GFFCVWSLLFFN | 0.395 ± 0.016
GFFLCTCIRFWV | 0.518 ± 0.034
GFLRTVHFLLLG | 0.675 ± 0.0077
GFNIFFFFFFFV | 0.223 ± 0.035
GFPFLCSFLLAS | 0.412 ± 0.0058
GFPFLFILYFLC | 0.257 ± 0.013
GGGAGVVWVRLG | 0.732 ± 0.022
GGGVGGAVVLFW | 0.764 ± 0.029
GGGWCVWMVWFG | 0.568 ± 0.0063
GGIRLRVRFFVI | 0.658 ± 0.011
GGSGGVSWRRVV | 0.735 ± 0.0088
GGSIKRFVILVL | 0.489 ± 0.0076
GGSKIGFTVGGG | 0.741 ± 0.017
GGTGGAGSRGQI | 0.741 ± 0.01
GGWFFWVGAWVV | 0.346 ± 0.028
GGWRVLHAWVAV | 0.682 ± 0.012
GGYIINRWRTKN | 0.709 ± 0.022
GILPIYNIISRL | 0.948 ± 0.019
GITSFFSWSFLS | 0.7537 ± 0.0057
GKWFSWNAIWIR | 0.0354 ± 0.0075
GLCGVCLVRCVG | 0.412 ± 0.024
GLGMVIIGLLIG | 0.342 ± 0.09
GLLGRCPVVVFG | 0.397 ± 0.013
GLRFFVSSLLCR | 0.54807 ± 0.0003

Sequence | protein stability index
GLVCPWLIVRFV | 0.3 ± 0.065
GLVWSKCFFIVG | 0.705 ± 0.016
GLWLRVCIVAWV | 0.122 ± 0.017
GLYLVFMGFVPC | 0.52714 ± 4.2e-05
GNIHHTRFLALL | 0.859 ± 0.012
GNSAGSVGGGRF | 0.738 ± 0.02
GPILVWVMADWG | 0.506 ± 0.028
GPVRTEFWLYVW | 0.704 ± 0.022
GQRIKWGPIYLT | 0.336 ± 0.0081
GREGETGSKAGR | 0.708 ± 0.013
GRGGLRVVVWLV | 0.642 ± 0.016
GRGLGHWWTVRT | 0.756 ± 0.024
GRVAIFTLLWRI | 0.105 ± 0.041
GSLHWVMVFAVP | 0.6404 ± 0.0044
GSVCVVCWELVV | 0.583 ± 0.0091
GSVGFICCVVVV | 0.4314 ± 0.0042
GTETWVFVLLKF | 0.0712 ± 0.011
GVFFHFFFLFCF | 0.352 ± 0.01
GVSRRWFSLRCI | 0.717 ± 0.015
GVVCCVVVGRMG | 0.659 ± 0.024
GVVRKLCHWVVA | 0.516 ± 0.031
GWVQFVKAAVLF | 0.7587 ± 0.0019
GYACSIFYLRCV | 0.5771 ± 6.4e-05
GYRFSILSILRV | 0.611 ± 0.014
HANPGTFGPCTR | 0.7204 ± 0.006
HGVYSVLRFFFC | 0.723 ± 0.021
